Reference: patent publication US20200010567A1 (NEURIMMUNE, published 2020)

Key:
[1] = molecular target: T1, GA10: H-(GA)10HHHHHH-NH2 (C-terminal amide); test: indirect ELISA, His-tagged peptide coated at 50 ug/ml, antibody titrated [also D00024 FIG. 7F]
T1 peptide: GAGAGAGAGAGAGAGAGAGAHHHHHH
Source text: (§1) In brief, dipeptide repeat proteins were synthesized and purified by Schafer-N (Copenhagen, Denmark): GA₂₀: H-(GA)₂₀HHHHHH-NH₂; GA₁₀: H-(GA)₁₀HHHHHH-NH₂; GA₆: H-(GA)₆HHHHHH-NH₂; GA₅: H-(GA)₅HHHHHH-NH₂; GA₄: H-(GA)₄HHHHHH-NH₂; GA₃: H-(GA)₃HHHHHH-NH₂; GA₂: H-(GA)₂HHHHHH-NH₂; GP₂₀: H-(GP)₂₀HHHHHH-NH₂; GP₁₀: H-(GP)₁₀HHHHHH-NH₂; GP₆: H-(GP)₆HHHHHH-NH₂; GP₅: H-(GP)₅HHHHHH-NH₂; GP₄: H-(GP)₄HHHHHH-NH₂; GP₃: H-(GP)₃HHHHHH-NH₂; GP₂: H-(GP)₂HHHHHH-NH₂. GR₂₀: H-(GR)₂₀HHHHHH-NH₂; GR₁₀: H-(GR)₁₀HHHHHH-NH₂; GR₆: H-(GR)₆HHHHHH-NH₂; GR₅: H-(GR)₅HHHHHH-NH₂; GR₄: H-(GR)₄HHHHHH-NH₂; GR₃: H-(GR)₃HHHHHH-NH₂; GR₂: H-(GR)₂HHHHHH-NH₂; PA₂₀: H-(PA)₂₀HHHHHH-NH₂; PA₁₀: H-(PA)₁₀HHHHHH-NH₂; PA₆: H-(PA)₆HHHHHH-NH₂; PA₅: H-(PA)₅HHHHHH-NH₂; PA₄: H-(PA)₄HHHHHH-NH₂; PA₃: H-(PA)₃HHHHHH-NH₂; PA₂: H-(PA)₂HHHHHH-NH₂; PR₂₀: H-(PR)₂₀HHHHHH-NH₂; PR₁₀: H-(PR)₁₀HHHHHH-NH₂; PR₆: H-(PR)₆HHHHHH-NH₂; PR₅: H-(PR)₅HHHHHH-NH₂; PR₄: H-(PR)₄HHHHHH-NH₂; PR₃: H-(PR)₃HHHHHH-NH₂; PR₂: H-(PR)₂HHHHHH-NH₂. 96-well microplates (Corning Incorporated, Corning, USA) were coated with dipeptide repeat protein peptides at a concentration of 50 μg/ml in coating buffer (15 mM Na₂CO₃, 35 mM NaHCO₃, pH 9.42). Non-specific binding sites were blocked for 1 h at room temperature with PBS/0.1% Tween®-20 containing 2% BSA (Sigma-Aldrich, Buchs, Switzerland). Primary antibodies were diluted to the indicated concentrations and incubated 1 h at room temperature, followed by incubation with a donkey anti-human IgG Fcγ-specific antibody conjugated with HRP (Jackson ImmunoResearch Laboratories, Inc., West Grove, USA). Binding was determined by measurement of HRP activity in a standard colorimetric assay. EC₅₀ values were estimated by non-linear regression using GraphPad Prism software (San Diego, USA).

[2] = molecular target: T2, GA4: H-(GA)4HHHHHH-NH2; test: as above
T2 peptide: H-GAGAGAGAHHHHHH-NH2
Source text: as §1

[3] = molecular target: T3, GA2: H-(GA)2HHHHHH-NH2; test: as above
T3 peptide: H-GAGAHHHHHH-NH2
Source text: as §1

[4] = molecular target: T4, (GP)15: H-C(GP)15-OH; test: indirect ELISA, uncoupled peptide coated, antibody titrated [also D00014 FIG. 3H]
T4 construct: synthetic, not coupled to BSA; also called poly-GP DPR protein peptide
T4 peptide: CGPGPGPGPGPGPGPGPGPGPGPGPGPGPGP
Procedure: (§2) In brief, dipeptide repeat proteins were synthesized and purified by Schafer-N(Copenhagen, Denmark): (GA)₁₅: H-CHHHHHH(GA)₁₅-OH; (GP)₁₅: H-C(GP)₁₅-OH; (GR)₁₅: H-C(GR)₁₅-OH; (PA)₁₅: H-C(PA)₁₅-OH; (PR)₁₅: H—C(PR)₁₅-OH. DPR protein peptides were then conjugated via a bifunctional linker (SMCC) to bovine serum albumin (BSA). 96-well microplates (Corning Incorporated, Corning, USA) were coated with BSA-coupled or -uncoupled dipeptide repeat protein peptides at a concentration of either 5 μg/ml or 20 μg/ml in coating buffer (15 mM Na₂CO₃, 35 mM NaHCO₃, pH 9.42). Non-specific binding sites were blocked for 1 h at room temperature with PBS/0.1% Tween®-20 containing 2% BSA (Sigma-Aldrich, Buchs, Switzerland). Primary antibodies were diluted to the indicated concentrations and incubated 1 h at room temperature, followed by incubation with a donkey anti-human IgG Fcγ-specific antibody conjugated with HRP (Jackson ImmunoResearch Laboratories, Inc., West Grove, USA). Binding was determined by measurement of HRP activity in a standard colorimetric assay. EC₅₀ values were estimated by non-linear regression using GraphPad Prism software (San Diego, USA).

[5] = molecular target: T5, GA5: H-(GA)5HHHHHH-NH2; test: indirect ELISA, His-tagged peptide coated at 50 ug/ml, antibody titrated [also D00026 FIG. 7K]
T5 peptide: H-GAGAGAGAGAHHHHHH-NH2
Procedure: as §2, with “96-well” for “In brief, dipeptide repeat proteins were synthesized and purified by Schafer-N(Copenhagen, Denmark): (GA)₁₅: H-CHHHHHH(GA)₁₅-OH; (GP)₁₅: H-C(GP)₁₅-OH; (GR)₁₅: H-C(GR)₁₅-OH; (PA)₁₅: H-C(PA)₁₅-OH; (PR)₁₅: H—C(PR)₁₅-OH. DPR protein peptides were then conjugated via a bifunctional linker (SMCC) to bovine serum albumin (BSA). 96-well”, “with” for “with BSA-coupled or -uncoupled”, “50” for “either 5 μg/ml or 20”
(§3) High affinity binding was detected for poly-GA DPRs harboring 10 or 20 (GA)-repeats, reflected in an EC₅₀ in the subnanomolar or low nanomolar range (FIGS. 7A, 7C-7I).

[6] = molecular target: T2, GA4: H-(GA)4HHHHHH-NH2; test: as above
Procedure: as §2, with “96-well” for “In brief, dipeptide repeat proteins were synthesized and purified by Schafer-N(Copenhagen, Denmark): (GA)₁₅: H-CHHHHHH(GA)₁₅-OH; (GP)₁₅: H-C(GP)₁₅-OH; (GR)₁₅: H-C(GR)₁₅-OH; (PA)₁₅: H-C(PA)₁₅-OH; (PR)₁₅: H—C(PR)₁₅-OH. DPR protein peptides were then conjugated via a bifunctional linker (SMCC) to bovine serum albumin (BSA). 96-well”, “with” for “with BSA-coupled or -uncoupled”, “50” for “either 5 μg/ml or 20”
as §3

[7] = molecular target: T6, GA3: H-(GA)3HHHHHH-NH2; test: as above
T6 peptide: H-GAGAGAHHHHHH-NH2
Procedure: as §2, with “96-well” for “In brief, dipeptide repeat proteins were synthesized and purified by Schafer-N(Copenhagen, Denmark): (GA)₁₅: H-CHHHHHH(GA)₁₅-OH; (GP)₁₅: H-C(GP)₁₅-OH; (GR)₁₅: H-C(GR)₁₅-OH; (PA)₁₅: H-C(PA)₁₅-OH; (PR)₁₅: H—C(PR)₁₅-OH. DPR protein peptides were then conjugated via a bifunctional linker (SMCC) to bovine serum albumin (BSA). 96-well”, “with” for “with BSA-coupled or -uncoupled”, “50” for “either 5 μg/ml or 20”
as §3

[8] = molecular target: T3, GA2: H-(GA)2HHHHHH-NH2; test: as above
Procedure: as §2, with “96-well” for “In brief, dipeptide repeat proteins were synthesized and purified by Schafer-N(Copenhagen, Denmark): (GA)₁₅: H-CHHHHHH(GA)₁₅-OH; (GP)₁₅: H-C(GP)₁₅-OH; (GR)₁₅: H-C(GR)₁₅-OH; (PA)₁₅: H-C(PA)₁₅-OH; (PR)₁₅: H—C(PR)₁₅-OH. DPR protein peptides were then conjugated via a bifunctional linker (SMCC) to bovine serum albumin (BSA). 96-well”, “with” for “with BSA-coupled or -uncoupled”, “50” for “either 5 μg/ml or 20”
as §3

B1: NI-308.15O7 (antibody, V domains shown)
VH: QVQLVESGGGVVQPGRSLRLSCAASGFTFSNHAMHWVRQAPGKGLEWVAVISYDGENTYYADSIEGRFTISRDNFKNTLFLQMYSLTADDTAMYFCARGGRRGHFTSYYLDYWGQGTLVTVSS
VL: CDIQMTQSPSSLSASVGDRVTITCRASQNIDKYLNWYQQIPGKAPKLLIYAASSLHSGVPSRFSGSGSGTDFSLTISSLQPEDFAIYYCQQSYSSFRTFGQGTKLEIK
Which results are given for B1?
EC50 [1]: 0.37 nM; binding result [2]: no binding (tested: about 4x10^5 pM (last point)); binding result [3]: no binding (tested: about 4x10^5 pM (last point))

B2: NI-308.46E9 (antibody, V domains shown)
VH: QVQLQESGPGLVKPSETLSLTCTVSGASISGSTYYWGWIRQPPGKGLEYIGRIYYSGSTYYNPSLKSRATISVDTSKNQLSLTLSSVTAADTAVYYCVRPFYAGSGNSPFDYWGQGTLVTVSS
VL: CEIVLTQSPATVSVSPGERATLSCRASQSVSTNLAWYQQKPGQPPRLLIYGASTRATGIPARFSGSGSGAEFTLTISSLQSEDFVVYYCQQYNNWPPAFGGGTKVEIK
notes: Recombinant complete human IgG1, kappa
For B2, which EC50 [4] is on record?
The EC50 was 22 nM.

B3: NI-308.5G2 (antibody, V domains shown)
VH: EVQLVQSGADLRNPGASVTVSCTASGYHFADNAINWLRQAPGQRLEWMGWINIYSGNTKYSQNFQGRVTFTRNTSASTAFMHLRSLRSEDTAVYFCARDPDSSGYYLPYFDYWGQGTLVTVSS
VL: DIQLTQSPDSLTLSLGERATINCKSSQSVFYNSNNKNYLAWYQQKPGQPPKLLMYWASTRESGVTDRFSGSGSGTDFTLTITNLQAEDVAVYYCQQFYSSPLTFGGGTKVEIK
notes: as for B2
Does B3 bind [5]?
Result: no binding (tested: about 4x10^5 pM (last point))

Does B3 bind [6]?
Result: no binding (tested: about 4x10^5 pM (last point))

Does B3 bind [7]?
Result: no binding (tested: about 4x10^5 pM (last point))

Does B3 bind [8]?
Result: no binding (tested: about 4x10^5 pM (last point))
